In this data set the test system is Saccharomyces cerevisiae. The experiment in a line: protein stability index of tFT-peptide fusion (C-terminal peptide) (PSI (0-1 scale)); higher = more stable (slower turnover). Particulars: temperature: 30 C. As to the method: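 MPS profiling in S. cerevisiae of the yeast C-terminome library: the last 12 aa of each annotated ORF are fused to the C-terminus of a sfGFP-mCherry timer, after a GGGS linker. Cells are FACS-sorted into 8 mCherry/sfGFP bins and deep-sequenced. PSI runs from 0 (unstable) to 1 (stable); wild type and das1Δ backgrounds, two technical replicates each.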

Where [1] appears, read: genetic background: das1 deletion.

± gives the standard deviation of the averaged measurements.

AEHHLQTFLSEK [ISC1 C-terminal 12 aa]: the protein stability index under setting [1] was found to be 0.6488 ± 0.0013 and the protein stability index (genetic background: wild type) amounted to 0.641 ± 0.02.

Regarding AELILETSYDKF [MRX1 C-terminal 12 aa], the protein stability index reads like this: under setting [1], 0.729 ± 0.011; (genetic background: wild type) 0.722 ± 0.055.

As to AESPEEADVEMS [PUP2 C-terminal 12 aa], the protein stability index runs as follows: under setting [1], 0.6788 ± 0.0056; (genetic background: wild type) 0.707 ± 0.052.

Sequence AFLKIFENAMPN [ADD37 C-terminal 12 aa] registered a protein stability index under setting [1] of 0.725 ± 0.019 and a protein stability index (genetic background: wild type) of 0.678 ± 0.0089.

In the case of AFRSLQKSKKKK [PKH3 C-terminal 12 aa], the protein stability index by setting is: under setting [1], 0.717 ± 0.042; (genetic background: wild type) 0.793 ± 0.034.

Consider AGEKTVAELMEN [PYP1 C-terminal 12 aa], for which the protein stability index under setting [1] is 0.679 ± 0.025 and the protein stability index (genetic background: wild type) is 0.687 ± 0.022.

AGIRKRDWDSTQ [RFM1 C-terminal 12 aa] had a protein stability index under setting [1] of 0.717 ± 0.02 and a protein stability index (genetic background: wild type) of 0.691 ± 0.055.

For the sequence AIQEYNARYPLN [ABF2 C-terminal 12 aa], the protein stability index is, setting by setting: under setting [1], 0.708 ± 0.0085; (genetic background: wild type) 0.707 ± 0.021.

Turning to AKCGEWTPELSS [CPR2 C-terminal 12 aa], the protein stability index under setting [1] was found to be 0.71451 ± 0.00067 and the protein stability index (genetic background: wild type) was found to be 0.731 ± 0.014.

Turning to AKERLNPPSNRR [NIP1 C-terminal 12 aa], the protein stability index stood at 0.708 ± 0.014 under setting [1] and 0.688 ± 0.02 (genetic background: wild type).

As for AKGKGKSDEKIL [YIL086C C-terminal 12 aa], the protein stability index under setting [1] is 0.7026 ± 0.0025 and the protein stability index (genetic background: wild type) turned out to be 0.73 ± 0.12.

On to ALNGDCCLWRWV [SWD3 C-terminal 12 aa], for which the protein stability index stood at 0.708 ± 0.015 under setting [1] and 0.292 ± 0.013 (genetic background: wild type).

Take ALNRADKMSTIG [URH1 C-terminal 12 aa]: the protein stability index came out at 0.676 ± 0.027 under setting [1] and 0.6665 ± 0.0042 (genetic background: wild type).

Take ALSEYMENTSGL [RSC9 C-terminal 12 aa]: the protein stability index runs as follows: under setting [1], 0.696 ± 0.059; (genetic background: wild type) 0.728 ± 0.014.

For ANLFSSKKKAKL [RSB1 C-terminal 12 aa], the protein stability index by setting is: under setting [1], 0.803 ± 0.058; (genetic background: wild type) 0.822 ± 0.061.

For the sequence ANRQCYVNGTKT [YDR250C C-terminal 12 aa], the protein stability index is, setting by setting: under setting [1], 0.663 ± 0.0094; (genetic background: wild type) 0.69065 ± 0.00059.

On to APAEQTQGEPTK [BMH2 C-terminal 12 aa], for which the protein stability index runs as follows: under setting [1], 0.71 ± 0.013; (genetic background: wild type) 0.677 ± 0.012.

For APDNGPTVEEVD [SSA4 C-terminal 12 aa], the protein stability index is 0.69 ± 0.0087 under setting [1] and 0.662 ± 0.023 (genetic background: wild type).

In the case of APEEEAYKPNQN [KRR1 C-terminal 12 aa], the protein stability index stood at 0.708 ± 0.0089 under setting [1] and 0.671 ± 0.012 (genetic background: wild type).

Regarding APRLRLEDIFQQ [RET1 C-terminal 12 aa], the protein stability index runs as follows: under setting [1], 0.752 ± 0.011; (genetic background: wild type) 0.7 ± 0.052.

With AQGKLIMNVEKF [AST1 C-terminal 12 aa], the protein stability index amounted to 0.712 ± 0.05 under setting [1] and 0.689 ± 0.019 (genetic background: wild type).

As for AQQNYRLWLSSF [ICY1 C-terminal 12 aa], the protein stability index is, setting by setting: under setting [1], 0.7166 ± 0.0069; (genetic background: wild type) 0.6246 ± 0.0033.

For the sequence ARGYVNVMDNIQ [SEC16 C-terminal 12 aa], the protein stability index came out at 0.6727 ± 0.0025 under setting [1] and 0.678 ± 0.042 (genetic background: wild type).

On to ARIWKYKKIAPN [TUP1 C-terminal 12 aa], for which the protein stability index runs as follows: under setting [1], 0.726 ± 0.0075; (genetic background: wild type) 0.706 ± 0.0071.

For ARMLARECRRHM [CDC23 C-terminal 12 aa], the protein stability index under setting [1] was 0.7022 ± 0.00087 and the protein stability index (genetic background: wild type) amounted to 0.698 ± 0.054.

For the sequence ASRFAQFLKQDA [MET16 C-terminal 12 aa], the protein stability index reads like this: under setting [1], 0.717 ± 0.012; (genetic background: wild type) 0.764 ± 0.15.

On to ATALSGHKANCN [MTQ1 C-terminal 12 aa], for which the protein stability index is 0.6878 ± 0.0049 under setting [1] and 0.6424 ± 0.0012 (genetic background: wild type).

On to ATFFRYLSNIFT [AGP3 C-terminal 12 aa], for which the protein stability index runs as follows: under setting [1], 0.723 ± 0.0077; (genetic background: wild type) 0.698 ± 0.0078.

On to ATLINILLELFS [ECM27 C-terminal 12 aa], for which the protein stability index amounted to 0.632 ± 0.014 under setting [1] and 0.63 ± 0.018 (genetic background: wild type).

As to ATSTAAAADKKT [HAP2 C-terminal 12 aa], the protein stability index under setting [1] was determined as 0.6674 ± 0.0023 and the protein stability index (genetic background: wild type) amounted to 0.724 ± 0.04.

For the sequence AVHLQAIDLLNC [PIR1 C-terminal 12 aa], the protein stability index under setting [1] was 0.714 ± 0.024 and the protein stability index (genetic background: wild type) is 0.672 ± 0.01.

Turning to AVIVHSYTVQHM [TRM3 C-terminal 12 aa], the protein stability index runs as follows: under setting [1], 0.695 ± 0.032; (genetic background: wild type) 0.632 ± 0.046.

On to AVKINRNGKPRI [TAO3 C-terminal 12 aa], for which the protein stability index came to 0.698 ± 0.014 under setting [1] and 0.6846 ± 0.0048 (genetic background: wild type).

In the case of AVVLQSIQFTSE [IML3 C-terminal 12 aa], the protein stability index reads like this: under setting [1], 0.621 ± 0.018; (genetic background: wild type) 0.608 ± 0.024.

As for AWDKFKLQNDIN [SWA2 C-terminal 12 aa], the protein stability index amounted to 0.736 ± 0.015 under setting [1] and 0.698 ± 0.03 (genetic background: wild type).

With AYFIDVVGCSGL [LIH1 C-terminal 12 aa], the protein stability index under setting [1] was found to be 0.706 ± 0.00073 and the protein stability index (genetic background: wild type) came to 0.705 ± 0.025.

As to AYLLFYTIRQVN [UBP8 C-terminal 12 aa], the protein stability index runs as follows: under setting [1], 0.366 ± 0.012; (genetic background: wild type) 0.14 ± 0.011.

With AYQIRQEVLQSL [SGA1 C-terminal 12 aa], the protein stability index reads like this: under setting [1], 0.65923 ± 0.00056; (genetic background: wild type) 0.672 ± 0.012.

Consider AYVLFYHRVYGV [DOA4 C-terminal 12 aa], for which the protein stability index was 0.691 ± 0.011 under setting [1] and 0.648 ± 0.026 (genetic background: wild type).

As for CDIQEEQVDITA [PUP1 C-terminal 12 aa], the protein stability index runs as follows: under setting [1], 0.695 ± 0.0088; (genetic background: wild type) 0.682 ± 0.015.

For “CEYGTNAIDALI [YER091C-A C-terminal 12 aa]”, the protein stability index turned out to be 0.7311 ± 0.0014 under setting [1] and 0.6917 ± 0.0036 (genetic background: wild type).

With CICSGMLFEMDG [SIN4 C-terminal 12 aa], the protein stability index turned out to be 0.696 ± 0.011 under setting [1] and 0.716 ± 0.067 (genetic background: wild type).

Turning to CIPLINYHLRKS [CBS1 C-terminal 12 aa], the protein stability index under setting [1] was 0.709 ± 0.022 and the protein stability index (genetic background: wild type) was 0.673 ± 0.023.

CKDQTVTQILAT [DMO1 C-terminal 12 aa]: the protein stability index by setting is: under setting [1], 0.6533 ± 0.0054; (genetic background: wild type) 0.682 ± 0.029.

On to “CLCLINLCCDVF [YDR034W-B C-terminal 12 aa]”, for which the protein stability index by setting is: under setting [1], 0.267 ± 0.0034; (genetic background: wild type) 0.295 ± 0.0068.

For CMESNPPVFMAI [YNL296W C-terminal 12 aa], the protein stability index reads like this: under setting [1], 0.709 ± 0.035; (genetic background: wild type) 0.713 ± 0.021.

CRGIAEVNMKYT [PPS1 C-terminal 12 aa] registered a protein stability index under setting [1] of 0.6869 ± 0.0036 and a protein stability index (genetic background: wild type) of 0.6326 ± 0.0059.

In the case of CTFIYFLYFSLF [YBL070C C-terminal 12 aa], the protein stability index runs as follows: under setting [1], 0.325 ± 0.0072; (genetic background: wild type) 0.288 ± 0.03.

Regarding CWENVRKTRAAK [PSO2 C-terminal 12 aa], the protein stability index turned out to be 0.692 ± 0.0083 under setting [1] and 0.6966 ± 0.005 (genetic background: wild type).

Sequence CYTEEEWSKIVV [BOL2 C-terminal 12 aa] had a protein stability index under setting [1] of 0.7072 ± 0.003 and a protein stability index (genetic background: wild type) of 0.717 ± 0.019.

DACIKRWNVVLE [AIP1 C-terminal 12 aa]: the protein stability index is 0.684 ± 0.023 under setting [1] and 0.71 ± 0.049 (genetic background: wild type).

Consider DDDDDDDGQITA [YHR131C C-terminal 12 aa], for which the protein stability index is 0.677 ± 0.027 under setting [1] and 0.6663 ± 0.004 (genetic background: wild type).

As for DDEIDSEEDENA [SDD3 C-terminal 12 aa], the protein stability index by setting is: under setting [1], 0.69 ± 0.035; (genetic background: wild type) 0.653 ± 0.018.

In the case of DDFKKAFREKRK [ALY1 C-terminal 12 aa], the protein stability index by setting is: under setting [1], 0.729 ± 0.013; (genetic background: wild type) 0.676 ± 0.044.

Take DEDDDEDVTDQE [DLS1 C-terminal 12 aa]: the protein stability index reads like this: under setting [1], 0.6663 ± 0.004; (genetic background: wild type) 0.677 ± 0.013.

With DEEEEIEPEVKA [SBA1 C-terminal 12 aa], the protein stability index turned out to be 0.678 ± 0.017 under setting [1] and 0.685 ± 0.027 (genetic background: wild type).

DEQPTLSQSKTK [DAD1 C-terminal 12 aa] gave a protein stability index under setting [1] of 0.708 ± 0.012 and a protein stability index (genetic background: wild type) of 0.714 ± 0.076.

Consider DFIKNPNDYFKQ [BEM2 C-terminal 12 aa], for which the protein stability index is, setting by setting: under setting [1], 0.73319 ± 0.00064; (genetic background: wild type) 0.729 ± 0.1.

Regarding DFSASSSVEEVK [MFT1 C-terminal 12 aa], the protein stability index stood at 0.7088 ± 0.004 under setting [1] and 0.662 ± 0.011 (genetic background: wild type).

Turning to DGTTSKDSEKKK [COA4 C-terminal 12 aa], the protein stability index under setting [1] came out at 0.708 ± 0.011 and the protein stability index (genetic background: wild type) came to 0.648 ± 0.011.

On to DHDVSLEEVINI [MCY1 C-terminal 12 aa], for which the protein stability index under setting [1] came out at 0.722 ± 0.034 and the protein stability index (genetic background: wild type) came out at 0.706 ± 0.02.

Regarding DIFDPVDFVSFF [OAF3 C-terminal 12 aa], the protein stability index reads like this: under setting [1], 0.772 ± 0.033; (genetic background: wild type) 0.752 ± 0.034.

Take DILGFKIAPRSA [YGR210C C-terminal 12 aa]: the protein stability index turned out to be 0.682 ± 0.049 under setting [1] and 0.7073 ± 0.0013 (genetic background: wild type).

With DILGSLLAKKRK [MRE11 C-terminal 12 aa], the protein stability index by setting is: under setting [1], 0.681 ± 0.023; (genetic background: wild type) 0.672 ± 0.022.

On to DILLSCIADLTI [POL2 C-terminal 12 aa], for which the protein stability index was 0.71 ± 0.04 under setting [1] and 0.707 ± 0.054 (genetic background: wild type).

As to DISDSEGGLFEC [PCI8 C-terminal 12 aa], the protein stability index under setting [1] turned out to be 0.69 ± 0.085 and the protein stability index (genetic background: wild type) is 0.694 ± 0.085.

As for DIYNQLHMFGEK [IGD1 C-terminal 12 aa], the protein stability index runs as follows: under setting [1], 0.663 ± 0.0086; (genetic background: wild type) 0.688 ± 0.01.

For DKEVVYFDEWTI [RPC34 C-terminal 12 aa], the protein stability index reads like this: under setting [1], 0.726 ± 0.062; (genetic background: wild type) 0.729 ± 0.032.

For the origin of these results see the supplement of paper PMC10724198.
